Data as given in PMC2191783.

B1: c-fms -150 PU-ets wild type (dsDNA)
DNA 1: GCCCAAGGAGGAGGAAGAGGAAAACAAG
DNA 2: CTTGTTTTCCTCTTCCTCCTCCTTGGGC
B2: c-fms -150 mutant M1 (MT-1) (dsDNA)
DNA 1: GCCCAAGTAGTAGTAAGAGTAAAACAAG
DNA 2: CTTGTTTTACTCTTACTACTACTTGGGC

Target: PU.1 (recombinant) (mouse, UniProt P17433 1-272)
Assay: EMSA

Binder | binding result
B1 | binds
B2 | no binding
